Measured values published in publication doi:10.1101/2020.06.22.166033.

Target: biotinylated SARS-CoV-2 S2P probe (SARS-CoV-2-S2P-AVI) (SARS-CoV-2 | T4 phage) (UniProt P0DTC2)
Experiment: SPR

CR3022 Fab
Kd: 91.4 nM
